What follows are sequences tested on Escherichia coli TOP10 (assay: shrunken log2 fold change of peptide-encoding DNA abundance (4.5 h post-induction vs induction); higher = less antimicrobial activity (less host growth inhibition)). Conditions: time post-induction: 4.5 h; library: site-saturation at positions 5, 18, 19, 20.
In the case of RRIRRRPPRLPRPRPRPGEMPRP, the “shrunken log2 fold change” value is reported as 0.122. With RRIRDRPPRLPRPRPRPHVKPRP the “shrunken log2 fold change” value was -0.205. For RRIRARPPRLPRPRPRPHNQPRP, the “shrunken log2 fold change” value was -0.00392. In the case of RRIRSRPPRLPRPRPRPHQFPRP, the “shrunken log2 fold change” value is reported as -0.124. RRIRCRPPRLPRPRPRPVPRPRP was tested, and the “shrunken log2 fold change” value was 0.534. With RRIRHRPPRLPRPRPRPRCHPRP the “shrunken log2 fold change” value was -0.555. In the case of RRIRFRPPRLPRPRPRPKPIPRP, the “shrunken log2 fold change” value is reported as 0.0634. In the case of RRIRLRPPRLPRPRPRPTKAPRP, the “shrunken log2 fold change” value is reported as 0.0258. With RRIRCRPPRLPRPRPRPHMPPRP the “shrunken log2 fold change” value was -0.585. With RRIRNRPPRLPRPRPRPECHPRP the “shrunken log2 fold change” value was -0.0505. With RRIRLRPPRLPRPRPRPENKPRP the “shrunken log2 fold change” value was -0.328. For RRIRLRPPRLPRPRPRPHAPPRP, the “shrunken log2 fold change” value was 0.304. For RRIRPRPPRLPRPRPRPAHIPRP, the “shrunken log2 fold change” value was -0.205. For RRIRERPPRLPRPRPRPTEWPRP, the “shrunken log2 fold change” value was -0.551. RRIRARPPRLPRPRPRPMIVPRP was tested, and the “shrunken log2 fold change” value was -0.262. With RRIRWRPPRLPRPRPRPQKEPRP the “shrunken log2 fold change” value was 0.0282. With RRIRKRPPRLPRPRPRPWYWPRP the “shrunken log2 fold change” value was -0.151. For RRIRKRPPRLPRPRPRPNPPPRP, the “shrunken log2 fold change” value was 0.0342. RRIRVRPPRLPRPRPRPYKIPRP was tested, and the “shrunken log2 fold change” value was -0.726. RRIRKRPPRLPRPRPRPMKMPRP was tested, and the “shrunken log2 fold change” value was 0.473. RRIRVRPPRLPRPRPRPSKIPRP was tested, and the “shrunken log2 fold change” value was -0.0852. RRIRSRPPRLPRPRPRPITDPRP was tested, and the “shrunken log2 fold change” value was -0.0789. For RRIRDRPPRLPRPRPRPAESPRP, the “shrunken log2 fold change” value was -0.0371. For RRIRTRPPRLPRPRPRPSEPPRP, the “shrunken log2 fold change” value was -0.295. For RRIRLRPPRLPRPRPRPQYRPRP, the “shrunken log2 fold change” value was -0.188. In the case of RRIRVRPPRLPRPRPRPDGRPRP, the “shrunken log2 fold change” value is reported as 0.149. In the case of RRIRGRPPRLPRPRPRPTAQPRP, the “shrunken log2 fold change” value is reported as 1.35. For RRIRRRPPRLPRPRPRPRPGPRP, the “shrunken log2 fold change” value was 0.557. RRIRMRPPRLPRPRPRPIFMPRP was tested, and the “shrunken log2 fold change” value was -0.0298. RRIRVRPPRLPRPRPRPHFLPRP was tested, and the “shrunken log2 fold change” value was 0.187. With RRIRGRPPRLPRPRPRPMVTPRP the “shrunken log2 fold change” value was 1.29. RRIRMRPPRLPRPRPRPYGWPRP was tested, and the “shrunken log2 fold change” value was 0.0956. In the case of RRIRPRPPRLPRPRPRPSPYPRP, the “shrunken log2 fold change” value is reported as -0.461. For RRIRPRPPRLPRPRPRPPHAPRP, the “shrunken log2 fold change” value was 0.589. With RRIRFRPPRLPRPRPRPPFTPRP the “shrunken log2 fold change” value was 0.0652. RRIRERPPRLPRPRPRPEKWPRP was tested, and the “shrunken log2 fold change” value was -0.0225. RRIRMRPPRLPRPRPRPWRCPRP was tested, and the “shrunken log2 fold change” value was 0.0452. With RRIRPRPPRLPRPRPRPGECPRP the “shrunken log2 fold change” value was 0.739. In the case of RRIRRRPPRLPRPRPRPIHRPRP, the “shrunken log2 fold change” value is reported as -0.041. For RRIRNRPPRLPRPRPRPNNMPRP, the “shrunken log2 fold change” value was -0.278. With RRIRDRPPRLPRPRPRPQTMPRP the “shrunken log2 fold change” value was -0.067. In the case of RRIRYRPPRLPRPRPRPQSHPRP, the “shrunken log2 fold change” value is reported as -0.416. RRIRARPPRLPRPRPRPEFMPRP was tested, and the “shrunken log2 fold change” value was 0.115. RRIRSRPPRLPRPRPRPKPAPRP was tested, and the “shrunken log2 fold change” value was 0.555. With RRIRRRPPRLPRPRPRPKDSPRP the “shrunken log2 fold change” value was 0.191. With RRIRYRPPRLPRPRPRPRRHPRP the “shrunken log2 fold change” value was -0.103. In the case of RRIRWRPPRLPRPRPRPHTTPRP, the “shrunken log2 fold change” value is reported as 0.0145. With RRIRKRPPRLPRPRPRPKFTPRP the “shrunken log2 fold change” value was 0.355. For RRIRKRPPRLPRPRPRPIPKPRP, the “shrunken log2 fold change” value was 0.499. With RRIRFRPPRLPRPRPRPKPNPRP the “shrunken log2 fold change” value was 0.545. In the case of RRIRRRPPRLPRPRPRPWRIPRP, the “shrunken log2 fold change” value is reported as 0.0818. RRIRQRPPRLPRPRPRPWIQPRP was tested, and the “shrunken log2 fold change” value was -0.251. RRIRMRPPRLPRPRPRPENDPRP was tested, and the “shrunken log2 fold change” value was 3.77. RRIRIRPPRLPRPRPRPTFKPRP was tested, and the “shrunken log2 fold change” value was -0.102. In the case of RRIRKRPPRLPRPRPRPVGVPRP, the “shrunken log2 fold change” value is reported as 0.515. RRIRVRPPRLPRPRPRPPIAPRP was tested, and the “shrunken log2 fold change” value was 0.322. In the case of RRIRNRPPRLPRPRPRPEGQPRP, the “shrunken log2 fold change” value is reported as -0.00174. RRIRPRPPRLPRPRPRPFGAPRP was tested, and the “shrunken log2 fold change” value was -0.00494. For RRIRNRPPRLPRPRPRPWGRPRP, the “shrunken log2 fold change” value was 0.0851. With RRIRNRPPRLPRPRPRPTWIPRP the “shrunken log2 fold change” value was -0.0601. With RRIRWRPPRLPRPRPRPFCSPRP the “shrunken log2 fold change” value was -0.0764. RRIRSRPPRLPRPRPRPYTGPRP was tested, and the “shrunken log2 fold change” value was -0.125. RRIRRRPPRLPRPRPRPVCSPRP was tested, and the “shrunken log2 fold change” value was 0.225. For RRIRVRPPRLPRPRPRPRKPPRP, the “shrunken log2 fold change” value was 0.0947. For RRIRGRPPRLPRPRPRPDQSPRP, the “shrunken log2 fold change” value was 0.777. RRIRTRPPRLPRPRPRPCDTPRP was tested, and the “shrunken log2 fold change” value was -0.116. In the case of RRIRTRPPRLPRPRPRPIWSPRP, the “shrunken log2 fold change” value is reported as 0.0914. RRIRHRPPRLPRPRPRPWFGPRP was tested, and the “shrunken log2 fold change” value was -0.0191. For RRIRNRPPRLPRPRPRPFHQPRP, the “shrunken log2 fold change” value was 0.151. For RRIRTRPPRLPRPRPRPTLRPRP, the “shrunken log2 fold change” value was -0.023. For RRIRRRPPRLPRPRPRPTLDPRP, the “shrunken log2 fold change” value was 0.809. For RRIRQRPPRLPRPRPRPHIIPRP, the “shrunken log2 fold change” value was -0.362. RRIRTRPPRLPRPRPRPGLGPRP was tested, and the “shrunken log2 fold change” value was 0.466. RRIRNRPPRLPRPRPRPYVYPRP was tested, and the “shrunken log2 fold change” value was -1.31. RRIRFRPPRLPRPRPRPCCWPRP was tested, and the “shrunken log2 fold change” value was 0.148. For RRIRQRPPRLPRPRPRPTLYPRP, the “shrunken log2 fold change” value was -0.0318. With RRIRPRPPRLPRPRPRPQQTPRP the “shrunken log2 fold change” value was 0.183. In the case of RRIRRRPPRLPRPRPRPILVPRP, the “shrunken log2 fold change” value is reported as -0.106. In the case of RRIRERPPRLPRPRPRPHACPRP, the “shrunken log2 fold change” value is reported as 0.013. In the case of RRIRLRPPRLPRPRPRPNISPRP, the “shrunken log2 fold change” value is reported as -0.373. In the case of RRIRIRPPRLPRPRPRPMSLPRP, the “shrunken log2 fold change” value is reported as -0.0475. In the case of RRIRVRPPRLPRPRPRPQWPPRP, the “shrunken log2 fold change” value is reported as 0.336. RRIRGRPPRLPRPRPRPLYIPRP was tested, and the “shrunken log2 fold change” value was -0.321. RRIRWRPPRLPRPRPRPHKEPRP was tested, and the “shrunken log2 fold change” value was -0.0233. RRIRVRPPRLPRPRPRPHKFPRP was tested, and the “shrunken log2 fold change” value was 0.0807. RRIRHRPPRLPRPRPRPLFCPRP was tested, and the “shrunken log2 fold change” value was -0.604. For RRIRLRPPRLPRPRPRPYVWPRP, the “shrunken log2 fold change” value was -0.872. For RRIRQRPPRLPRPRPRPCYVPRP, the “shrunken log2 fold change” value was -0.0541. In the case of RRIRQRPPRLPRPRPRPTERPRP, the “shrunken log2 fold change” value is reported as 0.313. For RRIRDRPPRLPRPRPRPTRIPRP, the “shrunken log2 fold change” value was 0.0348. In the case of RRIRCRPPRLPRPRPRPQFLPRP, the “shrunken log2 fold change” value is reported as -0.79.

Reference: the supplement of paper PMC9112550, “Optimization of the antimicrobial peptide Bac7 by deep mutational scanning” (BMC Biology, 2022)
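Note: peptides expressed intracellularly from a pBAD plasmid library in pooled LB shake-flask culture, induced with 0.3% L-arabinose, DNA abundance read by NGS, three biological replicates, DESeq2 with apeglm shrinkage.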
